This passage reports Kd results from patent US20230181748A1 (published 2023).

Holding throughout (test): MST
Assay [1] deals with preformed, sonicated Aβ aggregates (UniProt P05067 672-713).
Assay [2] has as its target T1, atto-633-labeled preformed tau aggregates (UniProt P10636 1-441, atto-633 label, site not stated).
In assay [3] the target is atto-633-labeled tau monomers (UniProt P10636 1-441, atto-633 label, site not stated).
Assay [4] addresses T1, atto-633-labeled preformed tau …. The source holds these as a separate data set.
The target is the same in assay [5]. This is another data set of the same source.

Read-outs that look alike come from different tables or passages of the source. Non-standard residues stand in square brackets, D forms with d. No end group written: not given here. pomalidomide = small molecule targeting Cereblon, fused after the C-terminal end; Hyp = O=C(O)[C@@H]1C[C@@H](O)CN1

T1 sequence (P10636 other isoform, or with tags, fused parts or gaps): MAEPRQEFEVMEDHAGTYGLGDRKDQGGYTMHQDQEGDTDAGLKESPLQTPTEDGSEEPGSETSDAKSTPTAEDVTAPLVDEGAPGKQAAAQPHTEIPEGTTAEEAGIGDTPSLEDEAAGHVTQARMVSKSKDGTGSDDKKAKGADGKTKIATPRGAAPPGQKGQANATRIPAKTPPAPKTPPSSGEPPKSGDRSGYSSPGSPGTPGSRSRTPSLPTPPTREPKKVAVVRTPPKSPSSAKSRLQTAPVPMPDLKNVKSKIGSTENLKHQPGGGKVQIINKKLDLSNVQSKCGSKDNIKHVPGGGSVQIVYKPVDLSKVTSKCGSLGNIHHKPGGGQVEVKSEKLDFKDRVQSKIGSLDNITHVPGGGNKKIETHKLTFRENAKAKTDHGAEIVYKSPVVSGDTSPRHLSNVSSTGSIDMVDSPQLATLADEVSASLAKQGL
Sequence of preformed, sonicated Aβ aggregates (P05067 672-713): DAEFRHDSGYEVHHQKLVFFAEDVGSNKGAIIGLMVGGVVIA
Sequence of atto-633-labeled tau monomers (P10636 other isoform, or with tags, fused parts or gaps): as the sequence (P10636 other isoform, or with tags, fused parts or gaps) above

What is called Kd is the equilibrium constant for the complex coming apart. Lower therefore signals tighter binding. In assay [1], GWVVIAGSKLKFFA [AbCap_19] displayed a Kd of 6.08 µM.

WQIVYKGSVWMINK-pomalidomide (also: pomalidomide link chemistry not described) [HET-pomalidomide]: the Kd in assay [2] was 4.8 µM; in assay [3], roughly 10.9 µM.

For WQIVYKGSVWMINKGSGSNLLRLTGW [HET_JAV], in assay [2], binding was characterised by a dissociation constant (Kd) of 2.2 µM.

Consider MVWGVVGSKLWFFA [AbCap_3], for which the figures for the Kd in assay [4] and in assay [1] were 4.65 µM and 4.94 µM, respectively.

Take WQIVYKGSVWMINKGSGSALA[Hyp]YIP [HET fused to the VHL-moiety]: the Kd in assay [5] amounted to 3.3 µM.

WQIVYKGSVWMINK [HET]: the Kd in assay [5] is roughly 3.3 µM.

In assay [1], MVWGVVGSKWVFFA [AbCap_4] gave a Kd of 1.55 µM.
